Here are results for one molecule from article doi:10.1101/756932 (bioRxiv, 2019).

The target in experiment [1] is Aurora B (endogenous, mouse cells) (mouse (endogenous in E14 ESCs), UniProt O70126 1-345). Put plainly: proximity ligation.
Experiment [2] deals with ERK (endogenous, mouse ME cells) (mouse (endogenous in ESC-derived ME cells)) (UniProt Q63844). Put plainly: proximity ligation.
ERK (endogenous, mouse ME cells) (mouse (endogenous in ESC-derived ME cells)), sequence (Q63844 whole entry): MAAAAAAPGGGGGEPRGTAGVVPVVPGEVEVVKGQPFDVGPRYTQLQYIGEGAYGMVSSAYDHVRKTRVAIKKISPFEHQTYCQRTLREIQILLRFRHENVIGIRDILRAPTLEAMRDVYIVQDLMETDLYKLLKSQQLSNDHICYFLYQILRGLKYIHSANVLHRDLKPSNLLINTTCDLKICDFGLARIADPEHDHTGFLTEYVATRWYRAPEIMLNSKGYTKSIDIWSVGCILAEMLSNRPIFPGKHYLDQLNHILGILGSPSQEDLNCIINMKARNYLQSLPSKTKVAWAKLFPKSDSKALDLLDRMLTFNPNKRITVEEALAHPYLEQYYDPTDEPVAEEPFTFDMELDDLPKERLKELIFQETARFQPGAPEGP

Aurora B (endogenous, mouse cells), sequence (O70126 whole entry): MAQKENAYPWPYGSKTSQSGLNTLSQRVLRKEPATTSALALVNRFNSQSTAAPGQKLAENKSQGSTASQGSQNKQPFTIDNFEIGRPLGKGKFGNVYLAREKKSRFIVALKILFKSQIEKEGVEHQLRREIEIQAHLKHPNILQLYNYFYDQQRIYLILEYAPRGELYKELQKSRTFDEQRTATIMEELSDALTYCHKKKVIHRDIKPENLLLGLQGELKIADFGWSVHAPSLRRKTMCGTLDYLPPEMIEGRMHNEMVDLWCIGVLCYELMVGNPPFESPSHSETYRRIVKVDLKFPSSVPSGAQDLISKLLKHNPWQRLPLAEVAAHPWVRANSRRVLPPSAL

B1: CNOT3-T292A/S294A (endogenous, Cnot3-DM mouse ESCs) (natural protein, mouse (endogenous in E14 ESCs), UniProt Q8K0V4 1-751, looked up)
chain: MADKRKLQGEIDRCLKKVSEGVEQFEDIWQKLHNAANANQKEKYEADLKKEIKKLQRLRDQIKTWVASNEIKDKRQLIENRKLIETQMERFKVVERETKTKAYSKEGLGLAQKVDPAQKEKEEVGQWLTNTIDTLNMQVDQFESEVESLSVQTRKKKGDKDKQDRIEGLKRHIEKHRYHVRMLETILRMLDNDSILVDAIRKIKDDVEYYVDSSQDPDFEENEFLYDDLDLEDIPQALVATSPPSHSHMEDEIFNQSSSTPTSTTSSSPIPPSPANCTTENSEDDKKRGRSADAEVSQSPAKNGSKPVHSNQHPQSPAVPPTYPSGPPPTTSALSSTPGNNGASTPAAPTSALGPKASPAPSHNSGTPAPYAQAVAPPNASGPSNAQPRPPSAQPSGGSGGGSGGSSSNSNSGTGGGAGKQNGATSYSSVVADSPAEVTLSSSGGSSASSQALGPTSGPHNPAPSTSKESSTAAPSGAGNVASGSGNNSGGPSLLVPLPVNPPSSPTPSFSEAKAAGTLLNGPPQFSTTPEIKAPEPLSSLKSMAERAAISSGIEDPVPTLHLTDRDIILSSTSAPPTSSQPPLQLSEVNIPLSLGVCPLGPVSLTKEQLYQQAMEEAAWHHMPHPSDSERIRQYLPRNPCPTPPYHHQMPPPHSDTVEFYQRLSTETLFFIFYYLEGTKAQYLAAKALKKQSWRFHTKYMMWFQRHEEPKTITDEFEQGTYIYFDYEKWGQRKKEGFTFEYRYLEDRDLQ
On to B1, for which the “fold increase of PLA interaction against wild-type cells” value in experiment [1] is around 3 fold. In experiment [2], this molecule came in with a fold reduction of PLA interaction foci in the cytoplasm against wild-type cells of 3 fold and a fold reduction of PLA interaction foci in the nucleus against wild-type cells of 5 fold.
